For two molecules, Kd results are on record in publication PMC7948816 (2021).

As a reminder, the Kd is the free concentration of one partner at which half of the binding sites on the other are occupied at equilibrium, for simple one-to-one binding. A high value points to weaker binding.

Assay [1] has as its target T1, alpha-tropomyosin (Oryctolagus cuniculus, UniProt P58772). As to the kind of experiment: ITC.
The target of assay [2] is T1, alpha-tropomyosin. As to the kind of experiment: fluorescence titration.

T1 sequence (P58772 whole entry): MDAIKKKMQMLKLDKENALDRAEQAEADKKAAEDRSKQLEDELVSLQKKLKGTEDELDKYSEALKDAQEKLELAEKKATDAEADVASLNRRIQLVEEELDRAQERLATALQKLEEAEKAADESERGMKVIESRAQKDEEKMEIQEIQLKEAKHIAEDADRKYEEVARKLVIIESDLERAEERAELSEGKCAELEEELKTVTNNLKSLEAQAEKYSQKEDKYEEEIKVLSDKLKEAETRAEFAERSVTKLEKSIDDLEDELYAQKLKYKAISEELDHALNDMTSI

B1: cardiac troponin I C-terminal peptide HcTnI-C27 184-210 (peptide)
chain: ENREVGDWRKNIDALSGMEGRKKKFES
In the case of B1, the Kd with alpha-tropomyosin [1] is 11 µM; in the assay with alpha-tropomyosin [2], 8 µM.

B2: cardiac troponin I C-terminal peptide HcTnI-C27-H 184-210 (peptide)
chain: ENREVGDWHKNIDALSGMEGRKKKFES
With B2, the Kd with alpha-tropomyosin [2] worked out at 15 µM.
